For experiment [1], the target named is T1, human E-selectin, cell-surface expressed (human, UniProt P16581 22-610).
T1 sequence: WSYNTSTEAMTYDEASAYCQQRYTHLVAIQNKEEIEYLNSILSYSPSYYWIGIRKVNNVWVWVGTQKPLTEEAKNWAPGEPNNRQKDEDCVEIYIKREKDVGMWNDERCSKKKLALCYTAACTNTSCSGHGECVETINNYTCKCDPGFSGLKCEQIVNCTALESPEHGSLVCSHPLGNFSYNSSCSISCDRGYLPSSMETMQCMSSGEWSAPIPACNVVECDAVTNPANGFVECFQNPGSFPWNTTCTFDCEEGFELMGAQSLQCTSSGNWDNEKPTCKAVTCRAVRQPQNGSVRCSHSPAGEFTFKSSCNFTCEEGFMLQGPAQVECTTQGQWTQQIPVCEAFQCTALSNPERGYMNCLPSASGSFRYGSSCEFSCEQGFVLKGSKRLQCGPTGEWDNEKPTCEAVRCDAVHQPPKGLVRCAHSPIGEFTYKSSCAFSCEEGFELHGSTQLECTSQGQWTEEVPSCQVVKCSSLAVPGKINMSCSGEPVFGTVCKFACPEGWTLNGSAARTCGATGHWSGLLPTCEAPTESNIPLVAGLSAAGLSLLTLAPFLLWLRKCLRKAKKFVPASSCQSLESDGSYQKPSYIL
The experiment in a line: cell-based or functional assay.

In experiment [2] the target is T1, human E-selectin, cell-surface expressed. The experiment in a line: flow cytometry, CHO cells. The protocol: Cells were maintained in growth medium at 37° C., 5% CO₂ and 95% air in a humidified incubator. Methotrexate or Zeocin were removed from the medium prior to culture for experiments. CHO-E selectin cells were detached from T-150 flasks using citric saline (135 mM KCl, 15 mM sodium citrate) and immediately re-calcified with the addition of CaCl₂) to the detached cells to a final concentration of 1 mM. Growth media was immediately added to the detached cells, then centrifuged at 300×g for 5 minutes at room temperature to pellet the cells. Cells were plated into 96-well round-bottom plates in cold CHO buffer consisting of phosphate buffered saline (PBS), pH 7.4 containing bovine serum albumin (BSA; Sigma-Aldrich) at final concentration of 1%, calcium chloride at final concentration of 1 mM, and sodium azide at a final concentration of 0.1%, for 5 minutes on wet ice. After incubation, the cells were centrifuged at 300×g for 2 minutes at 4° C. to remove the buffer.
After incubation, the antibodies were removed and the cells were washed three times by centrifugation at 300×g for 1 minute at 4° C. and resuspended in cold CHO buffer. The washed cells were resuspended and incubated for 30 minutes on wet ice with 100 μL of 1:1000 dilution of APC-conjugated AffiniPure F(ab′)₂ Fragment Goat Anti-human IgG, Fcγ (Jackson Immunoresearch). The cells were washed three or four times prior to resuspension in CHO buffer for flow cytometric analysis. A Becton Dickinson LSRFortessa instrument using 640 nanometer laser line was used to acquire cell fluorescence data. Geometric mean fluorescence of cells was analyzed by FlowJo software package (FlowJo, LLC) and plotted against antibody concentration. The estimated EC₅₀ values were calculated using nonlinear regression analysis in the GraphPad Prism suite.

Experiment [3] deals with T2, recombinant histidine-tagged human E-selectin (Sino Biologicals; 13025-H08H) (human, UniProt P16581 22-556).
T2 construct: also called recombinant human E-selectin; soluble recombinant human E-selectin
T2 sequence (looked up): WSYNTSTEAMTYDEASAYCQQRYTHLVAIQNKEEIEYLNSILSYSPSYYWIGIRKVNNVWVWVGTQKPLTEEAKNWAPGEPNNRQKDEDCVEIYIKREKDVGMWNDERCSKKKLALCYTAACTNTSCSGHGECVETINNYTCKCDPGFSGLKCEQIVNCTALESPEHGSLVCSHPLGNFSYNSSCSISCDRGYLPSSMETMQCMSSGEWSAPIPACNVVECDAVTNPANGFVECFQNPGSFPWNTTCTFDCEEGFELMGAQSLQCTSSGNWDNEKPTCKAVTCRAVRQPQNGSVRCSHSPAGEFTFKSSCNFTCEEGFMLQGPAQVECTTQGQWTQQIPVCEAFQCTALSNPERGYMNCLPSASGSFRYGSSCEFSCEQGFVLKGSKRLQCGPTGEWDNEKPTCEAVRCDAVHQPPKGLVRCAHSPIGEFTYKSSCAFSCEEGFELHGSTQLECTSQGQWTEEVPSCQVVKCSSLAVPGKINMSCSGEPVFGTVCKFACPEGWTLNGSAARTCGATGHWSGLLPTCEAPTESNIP
The experiment in a line: competition ELISA, His-tagged E-selectin on Ni-NTA plate vs HRP-conjugated sialyl Lewis A. Here is the method: Recombinant histidine-tagged E-selectin; cynomolgus monkey E-selectin (Sino Biologicals; 190169-C08H) and human E-selectin (Sino Biologicals; 13025-H08H) stock solutions were prepared to a final concentration of 3 μg/mL in phosphate buffered saline (PBS) without calcium and magnesium. One hundred μL per well of the diluted recombinant E-selectin protein was added into a Ni-NTA HisSorb 96 well plate (Qiagen, 35061) and plates were incubated on an orbital shaker at room temperature for 2 hours. Sialyl Lewis A polyacrylamide biotin, a synthetic E-selectin ligand (GlycoTech corporation 01-044), was conjugated to streptavidin HRP (horse radish peroxidase) (Ultra Streptavidin HRP, Thermo Scientific N504) and diluted in assay diluent containing 2 mM calcium chloride (BD OptEIA buffer; BD Biosciences, 555213).
Following the incubation, the plates were washed 5 times with 200 μL of wash buffer containing 2 mM of calcium chloride (50 mM TRIS [trisaminomethane]; 150 mM sodium chloride, 0.05% polysorbate 20, pH 7.4; 2 mM of calcium chloride). […] The final antibody concentration ranged from 200 nM to 0.09 nM and the final concentration of HRP conjugated Sialyl Lewis A was 5 μg/mL. Plates were washed as mentioned before, and 100 μL per well of 1-Step Ultra TMB substrate (Thermo Scientific, 34028) was added and incubated for 5 minutes at room temperature. Reactions were stopped with 100 μl of 2M sulfuric acid and absorbance read at 450 nm (Spectramax M5e). Data were analyzed and graphed using GraphPad Prism software (Version 8.0.2).

B1: humanized anti-E-selectin antibody 0841 (antibody, human IgG1, kappa, V domains shown)
VH: EVQLVESGGGLVQPGGSLRLSCAASGYNIRSSYMHWVRQAPGKGLEWVARIDPANGNTIYAEKFKIRFTISADNAKNSAYLQMNSLRAEDTAVYYCAMDLYSTSEYWGQGTLVTVSS
VL: DIQMTQSPSSLSASVGDRVTITCKTSQNINRYLNWYQQKPGKAPKLLIYNANSLQTGVPSRFSGSGSGTDFTLTISSLQPEDFATYFCLQDNSWPLTFGQGTKVEIKR
notes: effector-null human IgG1, kappa
Turning to B1, the “neutralization under physiological flow, HL-60 cell adhesion to CHO-human E-selectin cells IC50 (nM)” value in experiment [1] was 4.17 nM. In experiment [2], the EC50 was found to be 1.62 nM.

B2: optimized anti-E-selectin antibody 1282 (antibody, human IgG1, kappa, V domains shown)
VH: EVQLVESGGGLVQPGGSLRLSCAASGYAIRSAYMHWVRQAPGKGLEWVARIDPANGNTIYVDSVEGRFTISADNAKNSAYLQMNSLRAEDTAVYYCAMDLYSTSEYWGQGTLVTVSS
VL: DIQMTQSPSSLSASVGDRVTITCKTSQNIERYLNWYQQKPGKAPKLLIYAASSLQSGVPSRFSGSGSGTDFTLTISSLQPEDFATYFCLQDNAWPLTFGQGTKVEIKR
notes: as for B1
As for B2, the IC50 in experiment [3] came to 3.39 nM.

B3: anti-E-selectin antibody 0164 chimera (antibody, human IgG1, kappa, V domains shown)
VH: EVQLQQSGAEFGKPGTSVKLSCKVSGYNIRSSYMHWVNQRPGKGLEWIGRIDPANGNTIYAEKFKIKAILTADSSSNTAYMQLSQLKSDDTAIYFCAMDLYSTSEYWGQGVMVTVSS
VL: DIQMTQSPSFLSASVGDRVTINCKTSQNINRYLNWYQQKLGEAPKLLIYNANSLQTGIPSRFSASGSGTDFTLTINSLQPEDVATYFCLQDNSWPLTFGSGTKLEIKR
notes: rat VH/VL on effector-null human IgG1 and human kappa
In the case of B3, in experiment [1], the “neutralization under physiological flow, HL-60 cell adhesion to CHO-human E-selectin cells IC50 (nM)” value was determined as 3.73 nM. In experiment [2], it took 1.39 nM to reach a half-maximal effect (EC50). Moreover, the IC50 in experiment [3] came out at 3.39 nM.

B4: optimized anti-E-selectin antibody 1448 (antibody, human IgG1, kappa, V domains shown)
VH: EVQLVESGGGLVQPGGSLRLSCAASGYAIRSAYMHWVRQAPGKGLEWVARIDPANGNTIYVDSVKERFTISADNAKNSAYLQMNSLRAEDTAVYYCAMDLYSTSEYWGQGTLVTVSS
VL: DIQMTQSPSSLSASVGDRVTITCKTSQNIERYLNWYQQKPGKAPKLLIYAASSLQSGVPSRFSGSGSGTDFTLTISSLQPEDFATYFCLQDNAWPLTFGQGTKVEIKR
notes: as for B1
For B4, the IC50 in experiment [3] amounted to 2.96 nM.

B5: optimized anti-E-selectin antibody 1444 (antibody, human IgG1, kappa, V domains shown)
VH: EVQLVESGGGLVQPGGSLRLSCAASGYAIRSAYMHWVRQAPGKGLEWVARIDPANGNTIYVDSVTGRFTISADNAKNSAYLQMNSLRAEDTAVYYCAMDLYSTSEYWGQGTLVTVSS
VL: DIQMTQSPSSLSASVGDRVTITCKTSQNIERYLNWYQQKPGKAPKLLIYAASSLQSGVPSRFSGSGSGTDFTLTISSLQPEDFATYFCLQDNAWPLTFGQGTKVEIKR
notes: as for B1
B5: in experiment [3], the IC50 was determined as 3.01 nM.

B6: optimized anti-E-selectin antibody 1284 (antibody, human IgG1, kappa, V domains shown)
VH: EVQLVESGGGLVQPGGSLRLSCAASGYAIRSAYMHWVRQAPGKGLEWVARIDPANGNTIYVESVEGRFTISADNAKNSAYLQMNSLRAEDTAVYYCAMDLYSTSEYWGQGTLVTVSS
VL: DIQMTQSPSSLSASVGDRVTITCKTSQNIERYLNWYQQKPGKAPKLLIYAASSLQSGVPSRFSGSGSGTDFTLTISSLQPEDFATYFCLQDNAWPLTFGQGTKVEIKR
notes: as for B1
For the molecule B6, in experiment [3], the IC50 was 3.59 nM.

Values taken from patent US20240076386A1 (Pfizer, published 2024).
